Data from US20240011997A1 (NORDIC BIOSCIENCE A S, published 2024).
Ends that are not written are not given here.

Columns and labels:
[1] = molecular target: T1, Elongated peptide LPGGYGLPYTT (human); assay: Competitive ELISA on coated Biotin-LPGGYGLPYT
T1 construct: Standard peptide extended by one threonine at the C-terminus; also called C-extended elongated version
T1 peptide: LPGGYGLPYTT
Procedure: (§1) Based on the collected antibodies the ELP-3 assay was developed as competitive ELISA assay. A 96-well streptavidin-coated microtiter plate (Roche, Basel, Switzerland) was coated with 100 ul biotinylated screening peptide (Biotin-[…] (SEQ ID NO: 5)) dissolved in assay buffer for 30 min at 20° C. with shaking. Plates were washed five times in washing buffer (20 mM TRIS, 50 mM NaCl, pH 7). Sample/standard/control (20 ul) was added and followed by addition of (100 ul) monoclonal antibody and incubated for 3 h at 4° C. with shaking. After incubation, plates were washed five times in washing buffer. A volume of 100 ul of secondary HRP labeled goat anti-mouse antibody was added followed by 1 h incubation at 20° C. with shaking. Plates were then washed and TMB was added and the plate was analyzed by a SpectraMax M reader (Molecular Devices, Ca, USA) at 450 nm with 650 nm as the reference. A standard curve was plotted using a 4-parametric mathematical fit model. Each ELISA plate included kit controls to monitor inter-assay variation. All samples were measured within the range of the assay. All samples below the level of lower limit of quantification (LLOQ) were assigned the value of LLOQ.
(§2) Supernatants from antibody producing hybridomas were screened for reactivity against standard peptide, elongated peptide, and truncated peptide in an indirect ELISA. The peptide Biotin-[…] […]

[2] = molecular target: T2, non-sense peptide PGGVPGGVFY; assay: Competitive ELISA on coated Biotin-…
T2 construct: Control peptide in the specificity test
T2 peptide: PGGVPGGVFY
Procedure: as §1, §2

[3] = molecular target: T3, intact elastin (Sigma, E7152) (human, UniProt P15502 27-786, limits assumed); assay: ELP-3 competitive ELISA on in vitro cleavage samples
T3 construct: Uncleaved elastin control of the in vitro cleavage experiment
T3 sequence (looked up): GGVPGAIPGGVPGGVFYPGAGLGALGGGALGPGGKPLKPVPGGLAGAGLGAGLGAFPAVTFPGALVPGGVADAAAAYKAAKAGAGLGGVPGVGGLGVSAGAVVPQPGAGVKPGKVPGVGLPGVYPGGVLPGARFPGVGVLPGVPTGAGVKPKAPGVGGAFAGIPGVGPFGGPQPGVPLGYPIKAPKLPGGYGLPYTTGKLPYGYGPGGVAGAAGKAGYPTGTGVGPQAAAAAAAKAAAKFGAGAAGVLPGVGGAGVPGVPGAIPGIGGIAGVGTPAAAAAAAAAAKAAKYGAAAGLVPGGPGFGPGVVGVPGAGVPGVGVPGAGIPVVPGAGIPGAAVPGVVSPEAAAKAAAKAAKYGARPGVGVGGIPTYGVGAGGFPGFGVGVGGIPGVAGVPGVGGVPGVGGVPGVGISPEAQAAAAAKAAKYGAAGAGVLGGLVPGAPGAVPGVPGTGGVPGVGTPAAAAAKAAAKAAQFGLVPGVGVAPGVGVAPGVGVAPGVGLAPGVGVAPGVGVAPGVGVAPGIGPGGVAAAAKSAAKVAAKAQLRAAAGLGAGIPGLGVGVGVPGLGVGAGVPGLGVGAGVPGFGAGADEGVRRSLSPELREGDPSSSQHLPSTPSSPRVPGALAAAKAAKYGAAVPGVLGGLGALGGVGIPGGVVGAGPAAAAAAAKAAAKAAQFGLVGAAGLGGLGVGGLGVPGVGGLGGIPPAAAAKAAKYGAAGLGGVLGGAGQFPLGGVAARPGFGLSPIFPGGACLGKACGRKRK

[4] = molecular target: T4, Proteinase 3 (PR3; EPC ML734) (UniProt P24158 28-248); assay: as above
T4 construct: also called protease control
T4 sequence (looked up): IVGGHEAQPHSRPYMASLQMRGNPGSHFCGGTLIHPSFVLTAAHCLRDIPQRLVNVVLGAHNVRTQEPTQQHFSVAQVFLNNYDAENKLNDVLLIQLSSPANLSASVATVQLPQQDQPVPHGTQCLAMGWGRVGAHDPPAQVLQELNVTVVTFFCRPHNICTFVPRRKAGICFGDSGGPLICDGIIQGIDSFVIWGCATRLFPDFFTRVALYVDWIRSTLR

[5] = molecular target: T5, Human neutrophil elastase (HNE) protein (Abcam, ab91099) (human, UniProt P08246 30-247, limits assumed); assay: as above
T5 construct: also called protease control
T5 sequence (looked up): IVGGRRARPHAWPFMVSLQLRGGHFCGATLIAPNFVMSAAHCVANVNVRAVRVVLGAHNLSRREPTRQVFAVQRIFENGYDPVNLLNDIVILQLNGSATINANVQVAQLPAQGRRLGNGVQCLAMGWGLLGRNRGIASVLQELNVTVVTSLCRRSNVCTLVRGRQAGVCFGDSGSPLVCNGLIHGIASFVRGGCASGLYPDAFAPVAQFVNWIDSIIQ

[6] = molecular target: T6, Standard peptide LPGGYGLPYT (human); assay: Indirect or competitive ELISA with the standard peptide as calibrator
T6 construct: Synthetic decapeptide with a free C-terminus; also called calibrator peptide; selection peptide
T6 peptide: LPGGYGLPYT-OH

B1: monoclonal antibody clone NBH116/6A10-E7-D12 (antibody, mouse IgG1, kappa, V domains shown)
VH: EVKLVESGGGLVQPGDSLRLSCATSGFTFTDYYMSWVRQPPGKALEWLGFIRNKANGYTTEYSASVKGRFTISRDNSQSILYLQMNTLRAEDSATYYCARDIITTPSWFGYWGQGTLVTVSA
VL: DIQMNQSPSSLSASLGDTITITCHASQNINVWLSWYQQKPGNIPKLLIYKASNLHTGVPSRFSGSGSGTGFTLTISSLQPEDIATYYCQQGQSYPLTFGAGTKLELKR
notes: also called ELP-3 antibody; the selected antibody
binding result [1]: no binding | binding result [2]: no binding | binding result [3]: no binding | binding result [4]: no binding | binding result [5]: no binding | binding result [6]: binds
